Biological target: PDE6αβ catalytic dimer of rod cGMP phosphodiesterase 6 (bovine) (UniProt P11541)
Test: SDS-PAGE with Coomassie Blue densitometry of the purified complexes

Chain of PDE6αβ catalytic dimer of rod cGMP phosphodiesterase 6 (bovine) (P11541 whole entry, chain 1 of 2): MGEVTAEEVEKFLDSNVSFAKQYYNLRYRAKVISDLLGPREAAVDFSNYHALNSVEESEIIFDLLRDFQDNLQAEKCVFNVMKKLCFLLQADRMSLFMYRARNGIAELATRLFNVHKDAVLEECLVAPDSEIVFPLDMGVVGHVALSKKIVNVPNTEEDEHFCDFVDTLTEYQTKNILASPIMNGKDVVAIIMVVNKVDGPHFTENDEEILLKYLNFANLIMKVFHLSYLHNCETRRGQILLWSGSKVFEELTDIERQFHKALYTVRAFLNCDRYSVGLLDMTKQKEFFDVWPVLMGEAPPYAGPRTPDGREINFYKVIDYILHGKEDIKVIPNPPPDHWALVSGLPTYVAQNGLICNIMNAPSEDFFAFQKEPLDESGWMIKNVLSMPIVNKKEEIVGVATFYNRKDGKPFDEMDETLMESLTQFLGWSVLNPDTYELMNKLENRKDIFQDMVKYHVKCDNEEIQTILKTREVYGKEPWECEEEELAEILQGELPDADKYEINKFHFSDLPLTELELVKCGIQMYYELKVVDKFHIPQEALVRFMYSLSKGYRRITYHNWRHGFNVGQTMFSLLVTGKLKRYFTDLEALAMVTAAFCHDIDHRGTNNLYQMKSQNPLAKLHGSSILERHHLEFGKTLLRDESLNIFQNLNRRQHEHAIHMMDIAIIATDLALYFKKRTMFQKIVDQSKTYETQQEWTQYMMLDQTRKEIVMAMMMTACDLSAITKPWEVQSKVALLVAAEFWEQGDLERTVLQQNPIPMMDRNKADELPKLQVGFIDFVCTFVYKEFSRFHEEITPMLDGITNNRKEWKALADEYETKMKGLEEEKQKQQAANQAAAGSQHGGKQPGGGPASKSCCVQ
Chain of PDE6αβ catalytic dimer of rod cGMP phosphodiesterase 6 (bovine) (P23439 whole entry, chain 2 of 2, further chain): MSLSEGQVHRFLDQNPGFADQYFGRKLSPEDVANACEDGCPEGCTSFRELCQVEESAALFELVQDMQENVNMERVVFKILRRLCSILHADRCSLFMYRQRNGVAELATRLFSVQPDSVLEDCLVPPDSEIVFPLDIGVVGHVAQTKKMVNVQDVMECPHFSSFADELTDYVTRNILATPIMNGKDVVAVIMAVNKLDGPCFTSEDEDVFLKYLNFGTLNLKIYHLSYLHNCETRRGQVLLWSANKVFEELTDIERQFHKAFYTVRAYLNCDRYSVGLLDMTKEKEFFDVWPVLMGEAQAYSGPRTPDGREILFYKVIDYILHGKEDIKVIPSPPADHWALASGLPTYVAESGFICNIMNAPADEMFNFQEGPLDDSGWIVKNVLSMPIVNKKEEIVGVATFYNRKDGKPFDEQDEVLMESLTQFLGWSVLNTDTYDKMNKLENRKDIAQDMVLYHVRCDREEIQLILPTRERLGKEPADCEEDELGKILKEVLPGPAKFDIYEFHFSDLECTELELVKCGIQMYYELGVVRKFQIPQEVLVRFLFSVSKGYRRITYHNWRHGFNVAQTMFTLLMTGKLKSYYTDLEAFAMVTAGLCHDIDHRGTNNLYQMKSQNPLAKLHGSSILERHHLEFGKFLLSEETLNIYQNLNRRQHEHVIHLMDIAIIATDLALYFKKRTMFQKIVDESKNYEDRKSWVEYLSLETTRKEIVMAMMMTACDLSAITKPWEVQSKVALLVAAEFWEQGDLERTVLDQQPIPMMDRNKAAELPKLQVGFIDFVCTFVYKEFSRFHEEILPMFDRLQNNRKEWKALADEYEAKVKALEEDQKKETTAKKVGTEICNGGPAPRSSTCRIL

- stoichiometry N: 2
B1: PDE6γ regulatory (inhibitory) subunit of rod cGMP phosphodiesterase 6 (natural protein)
chain: MNLEPPKAEIRSATRVMGGPVTPRKGPPKFKQRQTRQFKSKPPKKGVQGFGDDIPGMEGLGTDITVICPWEAFNHLELHELAQYGII

Reference: article PMC2917047
